{"source": "paper doi:10.1101/2025.11.18.689095", "about": "(bioRxiv, 2025)", "binders": {"B1": {"name": "Hsp90_(EEVD) peptide (peptide)", "peptide": "YDTSRMEEVD-OH", "notes": "tyrosine added to aid with quantification; C-terminal residues 724-732 of human Hsp90α; 10 residues: an added N-terminal Tyr and nine Hsp90 residues; source: synthetic peptide (LifeTein)"}, "B2": {"name": "human Tom70 (residues 108–608) (domain or fragment)", "chain": "MNSLDRAQAAKNKGNKYFKAGKYEQAIQCYTEAISLCPTEKNVDLSTFYQNRAAAFEQLQKWKEVAQDCTKAVELNPKYVKALFRRAKAHEKLDNKKECLEDVTAVCILEGFQNQQSMLLADKVLKLLGKEKAKEKYKNREPLMPSPQFIKSYFSSFTDDIISQPMLKGEKSDEDKDKEGEALEVKENSGYLKAKQYMEEENYDKIISECSKEIDAEGKYMAEALLLRATFYLLIGNANAAKPDLDKVISLKEANVKLRANALIKRGSMYMQQQQPLLSTQDFNMAADIDPQNADVYHHRGQLKILLDQVEEAVADFDECIRLRPESALAQAQKCFALYRQAYTGNNSSQIQAAMKGFEEVIKKFPRCAEGYALYAQALTDQQQFGKADEMYDKCIDLEPDNATTYVHKGLLQLQWKQDLDRGLELISKAIEIDNKCDFAYETMGTIEVQRGNMEKAIDMFNKAINLAKSEMEMAHLYSLCDAAHAQTEVAKKYGLKPPTL", "notes": "human Tom70 (translocase of outer mitochondria membrane 70), residues 108-608; N-terminal Avi tag, His6 tag, (GGS)5 linker and TEV site removed by TEV protease; also called hTom70; free Tom70; source: E. coli BL21 (DE3), purified (Ni-NTA, TEV cleavage, second Ni column, SEC); not shown: Avi, N-terminal, cleaved; His6, N-terminal, cleaved"}, "B3": {"name": "^19F-labeled Tom70 (5-fluoro-tryptophan, residues 108–608) (domain or fragment)", "chain": "B2 chain", "modifications": "5-fluoro-tryptophan at W169 and W523", "notes": "human Tom70, residues 108-608; also called ^19F Tom70; 5F-Trp Tom70; source: E. coli BL21(DE3) in M9 media supplemented with 5-fluoro-tryptophan, purified as unlabeled Tom70; not shown: Avi, N-terminal, cleaved; His6, N-terminal, cleaved"}}, "settings_in_all_cases": "both partners purified", "key": {"[1]": {"target": "B2", "experiment": "ITC; Hsp90_(EEVD) (400–500 μM) titrated into Tom70 or its complexes (30 μM) in the cell; 20°C; 20 mM sodium phosphate pH 8, 150 mM NaCl, 2 mM TCEP, 10% glycerol; 1:1 binding model"}, "[2]": {"target": "T1, human Hsp90α (residues 1–732), full-length (human, UniProt P07900 1-732)", "T1 construct": "human Hsp90α, residues 1-732; also called full-length Hsp90; heat shock protein 90; source: E. coli BL21 Star (DE3) pLysS, purified (Ni-INDIGO, TEV cleavage, second Ni-INDIGO, HiPrep Q); not shown: Avi, N-terminal, cleaved; His6, N-terminal, cleaved", "experiment": "ITC; Tom70 (400 μM), Tom70:Orf9b_(Helix) complex (400 μM), Tom70:Orf9b complex (500 μM) or truncation mutant complexes titrated into Hsp90 (20 μM); 20°C; 20 mM sodium phosphate pH 8, 150 mM NaCl, 2 mM TCEP, 10% glycerol; 1:1 binding model"}, "[3]": {"target": "T2, biotinylated human Hsp90α (residues 1–732), tags not cleaved (human, UniProt P07900 1-732, biotin (enzymatic protein biotinylation kit))", "T2 construct": "human Hsp90α, residues 1-732; N-terminal Avi tag, His6 tag, (GGS)5 linker and TEV site remain on the chain; held on streptavidin probes; also called biotinylated Hsp90; surface-immobilized Hsp90; source: E. coli BL21 Star (DE3) pLysS, purified (Ni-INDIGO, HiPrep Q; no TEV cleavage), enzymatically biotinylated; not shown: Avi, N-terminal, kept; His6, N-terminal, kept", "experiment": "BLI + ITC; kon estimated indirectly as koff from BLI (immobilised biotinylated Hsp90) divided by KD from ITC (untagged Hsp90)"}, "[4]": {"target": "T1, human Hsp90α (residues 1–732), …", "experiment": "NMR titration"}}, "note": "Where no end group is shown, it is not given here.", "data": [{"binder": "B1", "values": [{"measurement": "fold lower affinity than full-length Hsp90 for free Tom70", "setting": "[1]", "value": 4, "unit": "fold"}]}, {"binder": "B2", "values": [{"measurement": "Kd", "setting": "[2]", "value": 3000, "unit": "nM"}, {"measurement": "kon", "setting": "[3]", "value": 500000, "unit": "M⁻¹ s⁻¹"}]}, {"binder": "B3", "values": [{"measurement": "binding result", "setting": "[4]", "value": "binds"}]}]}
